Laboratory results reported in the supplement of paper PMC9170038.

What follows are sequences tested on MS2 coat protein (assay: apparent KD of MS2 coat protein; higher = weaker reporter binding). Conditions: Eterna round: R107; input ligand: theophylline 2 mM.
In short: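 For every design, apparent KD is the median of normalised binding-curve fits from its clusters. The RNA switches were transcribed on-chip from Illumina sequencing clusters and titrated with SNAP-549-labelled MS2 coat protein (twofold steps, 0.7 or 1.5 nM to 3 µM; 0.8–1.5 h to 10–20 min per step). Titrations used 100 mM Tris-HCl pH 7.5, 80 mM KCl, 4 mM MgCl2, without or with constant ligand.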

Sequence	apparent KD of MS2 coat protein
AAUACCGGUCCUCGAAGGUGAUCCUCAUAACGAGGACCGGUACGGCCGCCACUCGAUAACAUGAGGAUCACCCAUGUAAUAAUAA [|T'-M'-Trp-Ms2|_Design6]	235 nM
GGGCGCUAUCCCGCGAGGGAUAGCGUUCUUCGAGGACCGGUACGGCCGCCACUCGAACGAGUGGUGACAUGAGGAUCACCCAUGU [Paa]	81.1 nM
UGUAUGGACUGAAGGAGCGCCUCAAAACAUGAGGAUCACCCAUGUGGACAAUAAGUCCUUGGGCAGGUAGGUCGCAGUCCAUACU [ArgBX 6 #StaticStem #MS2Late]	85.3 nM
AGUUAAAUAUGUUAAUAACUAUUUACUGAAGGAGCGUGUUUUGACACAGGUAGGUCGCAGUGACAUGAGGAUCACCCAUGUCGUA [#08 Same State - Arginine A]	21.6 nM
CUAUGGAUAAGAAGGAGCGUCGAAAAUGGGUAAACAUGAGGAUCACCCAUGUAAAGGGAACGACAGGUAGGUCGCUUAUUUAUAG [AstromonsSSArgB#7]	213 nM
UAUAUAUAGGGAAGGAGCGGGAACAUGAGGAUCACCCAUGUACAUGAGGAUCACCCAUGUACCCAGGUAGGUCGCCCAUAUAUAU [Exclusion - Arginine B]	276 nM

Same assay, conditions: Eterna round: R107; input ligand: tryptophan 2.4 mM

Sequence	apparent KD of MS2 coat protein
AUACAUGAGGAUCACCCAUGUCAUACAGAAGGAGCGUCAUAUUAGACAGGUAGGUCGCUGUAAUUUUUAUUAUUCUUUAUGUAUU [JR_Nu_ExcArginiA_Sub026]	26.1 nM
UGAAAGUAGGGAAGGAGCGCUACAACAUGAGGAUCACCCAUGUUAUGAGGAUCACCCGUGUGGCAGGUAGGUCGCCCAAAACAUG [#13 Same State - Arginine B]	31.9 nM
CUUGAGACAUGAGGAUCACCCAUGUCCGAAGGAGCGUGCGAAAGCACAGGUAGGUCGCGGACGUGAGGAUCUCCCAUGUGAGCGA [#25 Exclusion - Arginine A]	17.8 nM
UAUAUAUAUAUUGAUACCAGCAGAGAAAACGUAUAUCCUAACAUGAGGAUCACCCAUGUAUGCCCUUGGCAGCGAUAUAUAUAUA [8.B]	24.9 nM
AGCUCGCAUCCUCUAGCGUCAAAGACGCGUCGAGGACCGGUACGGCCGCCACUCGACUUGAGGAUCACCCAAGUCUAAGCGAGCA [TrypAX 11 #SwitchBubble #AlternativeMS2 #MS2Late #CuTurnoff]	488 nM
ACAUGAGUGGAUAAUAAAUAAGAAGGCGAAGGAGCGUGAAGAAUCACAGGUAGGUCGCGCAAAAUACAUGAGGAUCACCCAUGUU [JR_Nu_ExcArginiA_Sub031]	25.9 nM
AGGAAAACAUGAGCAAAGCUCAUGUGCGAAGGAGCGGCGGAAACGCCAGGUAGGUCGCGCACAUGAGCAUCAGCCAUGUGUAUCA [Omei Arginine B SS A v4]	31.6 nM
AAACAUGAGGAUCACCCAUGUUCUCGUGUCCGAGGACCGGUACGGCCGCCACUCGGUUCUCGCGAGGAUGGUCAAAGACUAUCCA [Omei Trp A SS B v6]	29 nM
AUCGUACCUGAUGAUACCAGCAUGUGAUCAUAACAUGAGGAUCACCCAUGUAAUCAGUGAUGCCCUUGGCAGCAUAGUCGAUACA [Same State - Theophylline B (Freestyle 6)]	149 nM
AGAGUCAGACAAAAGUCUGGCUCAGCCGAAGGAGCGUCCGAAAGGACAGGUAGGUCGCGGUUCCAUGAGGAUCACCCAUGGUCCU [ArgAS 28 #OpenEnded #AlternativeMS2]	71.1 nM
AUACAUGAGGAUCACCCAUGUAUAGAUGAAGGAGCGACCAGAGGGUCAGGUAGGUCGCAUCACAUGAGGAUCACCCAUGUACUUA [DOUBLE!!! :-D #9]	41.5 nM
CGAUCUUUCGAAAGAAGGAUCGAGUCUGAUACCAGAGACGAAAGUCUCCCUUGGCAGCAGUGCCAACAUGAGGAUCACCCAUGUA [Theophylline A 9]	18.9 nM
UGGCGAGAAGGAAGGAGCGUCAGCUGAGUCACAUGAGGAUCACCCAUGUAGGACAUGGUGUGACAGGUAGGUCGCCUUCUGCCCU [SS-ArgB18]	13 nM
ACGUAAUGCAGAAGGAGCGUCAACCUCUUACAUGAGGAUCACCCAUGUUACAUGGUUGUAUGACAGGUAGGUCGCUGAAGUACGA [JR_ExcArginiB_Sub001]	36.6 nM
ACAUGAGGAUGGGAUACCAGAUACAUGAGGAUCACCCAUACAUGAGGAUCACCCAUGUCCGUCCCUUGGCAGCCCAACAUGAGGA [Exclusion Theophylline B]	150 nM
GAGCUGAUGUAGAGCGAAUAUACGAGAGAUACCAGUACAGAAAUGUACCCUUGGCAGCUCAACUUUACAUGAGGAUCACCCAUGU [Ex Theophylline A 22]	14.3 nM
UAUAUAGUGAUGGAUACCAGCAGAGAAAACGUUUAUCCUAACAUGAGGAUCACCCAUGUAUGCCCUUGGCAGCUGUUGUUAUAUA [8.L]	21.4 nM

Sequence	apparent KD of MS2 coat protein
ACAUUUAACUGAAGGAGCGUGAUAUUUACAUGAGGAUCACCCAUGUCUAUCAUGAGAUAUUCACAGGUAGGUCGCAGACUAAUGA [JR_ExcArginiB_Sub005]	29.4 nM
ACAUCCAGGUUAAUCGUGGGCAUGGUCGAUACCAGUAUUUUAAUCUACCCUUGGCAGCGACAUGAGGAUCACCCAUGUGCGAUGA [XTheo A #13]	25.8 nM
GGUUACUCUACGGCCGCCACUGUAAUGUAAAGAUACCUGUACAUGACAUGAGGAUCACCCAUGUGCAGGACCGGGUAGUGUAACC [Tryptophan B 19]	19.8 nM
GCUGCUUUGGGAAGGAGCGCUGUGGUAGUGUGGCGGACAUGAGGAUCACCCAUGUGCCUGCAGCAGGUAGGUCGCUUAGGGCAGC [EAP NP+V+V2 #16]	36.5 nM
GGUCGCCUACAUGGGUAGGCGAUUUUGGAAGGAGCGAGCGAGAGCUCAGGUAGGUCGCCAGCACAUGAGGAUCACCCAUGUUUUU [SSArg-A #25 Weakened 1st state]	18.7 nM
AAAAUAAAUAAAACACGUAACAUGAAGGAUACCAGACCGGAAACGGUCCCUUGGCAGCCUCUACAUGAGGAUCACCCAUGUCGUG [Mat - Same State Theophlline A - Mod of Eli - D18]	258 nM
AGUAAUCUAACAGAUACCAGACGGUAUAUAACAUGAGGAUCACCCAUGUCUUGGGUGUACGUCCCUUGGCAGCUGAAAAUGAUAA [JR_SSTheophyB_Sub001]	756 nM
AUACAUGAGGAUCACCCAUGUUAUAGUGAAGGAGCGACAUUUAGGUCAGGUAGGUCGCACUAUUGAAUUAUUAUCCUUAUUUCUU [JR_ExcArginiA_Sub020]	15.7 nM
CAUACUUUAUCCUAUGAGCCUAUUUGUGAUACCAGCAUCUAAAUUUGCCCUUGGCAGCACUUACAUGAGGAUCACCCAUGUUUUA [JR_NU_SSTheophyA_Sub028]	24 nM
UUCAAAGGGAACGGUGCUGGUGACAGAGAUACCAGCGCGGUAACGCGCCCUUGGCAGCUCAGAACAUGAGGAUCACCCAUGUAAU [Exclusion Theophylline A GF23]	15.4 nM
AGUGUUGUAACUGAUACCAGACCUUUGCUUAUACAUGAGGAUCACCCAUGUAAAAUGGCGGUCCCUUGGCAGCAGAGAAGACGCA [#10 Same State - Theophylline B]	41.9 nM
GGGCGCUAUCCCGCGAGGGAUAGCGUUCUUCGAGGACCGGUACGGCCGCCACUCGAACGAGUGGUGACAUGAGGAUCACCCAUGU [Paa]	58.7 nM
UGUAUGGACUGAAGGAGCGCCUCAAAACAUGAGGAUCACCCAUGUGGACAAUAAGUCCUUGGGCAGGUAGGUCGCAGUCCAUACU [ArgBX 6 #StaticStem #MS2Late]	60.9 nM
AGUUAAAUAUGUUAAUAACUAUUUACUGAAGGAGCGUGUUUUGACACAGGUAGGUCGCAGUGACAUGAGGAUCACCCAUGUCGUA [#08 Same State - Arginine A]	19.2 nM
CUAUGGAUAAGAAGGAGCGUCGAAAAUGGGUAAACAUGAGGAUCACCCAUGUAAAGGGAACGACAGGUAGGUCGCUUAUUUAUAG [AstromonsSSArgB#7]	192 nM
UAUAUAUAGGGAAGGAGCGGGAACAUGAGGAUCACCCAUGUACAUGAGGAUCACCCAUGUACCCAGGUAGGUCGCCCAUAUAUAU [Exclusion - Arginine B]	241 nM
